Measured values published in patent US20240174741A1 (IMMUNOME, published 2024).

Columns and labels:
IL-1α = molecular target: T1, IL-1α (human, UniProt P01583 1-271, limits assumed); experiment: CDI HuProt native protein microarray
T1 sequence (looked up): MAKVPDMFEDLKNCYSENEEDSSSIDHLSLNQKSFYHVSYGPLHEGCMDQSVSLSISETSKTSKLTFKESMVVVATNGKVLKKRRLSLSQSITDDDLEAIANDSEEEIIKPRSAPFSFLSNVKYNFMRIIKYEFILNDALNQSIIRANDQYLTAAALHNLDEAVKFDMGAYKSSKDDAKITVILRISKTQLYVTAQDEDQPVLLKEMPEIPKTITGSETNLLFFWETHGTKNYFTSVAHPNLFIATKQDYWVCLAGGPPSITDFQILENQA
Description: (§1) To confirm specificity to IL-38, several lead candidate antibodies (CD1-M3, CD1-M8, NZB-M8) were analyzed in a High-Spec Cross-reactivity Assay using native HuProt arrays (CDI Laboratories). […] of antibody was incubated overnight in a cold room, washed, and probed with anti-human secondary antibodies. Fluorescence intensity (F635) as an indicator of binding was measured for each spot. CDI software quantified the specificity of the antibody to each spot based on a Z-score. Z-score is defined as [F635−(Average F635 on array)]/(Standard deviation of F635 on array). S-score is defined as the difference between the Z-score of a given protein and the Z-score of the next highest protein.

IL-1β = IL-1β (human, UniProt P01584 1-269, limits assumed); experiment: CDI HuProt native protein microarray
Description: as §1

IL-1Ra = IL-1Ra (human, UniProt P18510 26-177, limits assumed); experiment: CDI HuProt native protein microarray
Description: as §1

IL-18 = molecular target: T2, IL-18 (human, UniProt Q14116 1-193, limits assumed); experiment: CDI HuProt native protein microarray
T2 sequence (looked up): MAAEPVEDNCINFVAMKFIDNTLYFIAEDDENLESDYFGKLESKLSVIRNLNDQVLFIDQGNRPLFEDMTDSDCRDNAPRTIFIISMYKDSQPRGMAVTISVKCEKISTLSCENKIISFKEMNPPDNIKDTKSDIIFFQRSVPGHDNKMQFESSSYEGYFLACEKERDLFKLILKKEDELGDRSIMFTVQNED
Description: as §1

IL-36Ra = molecular target: T3, IL-36Ra (human, UniProt Q9UBH0 1-155, limits assumed); experiment: CDI HuProt native protein microarray
T3 sequence (looked up): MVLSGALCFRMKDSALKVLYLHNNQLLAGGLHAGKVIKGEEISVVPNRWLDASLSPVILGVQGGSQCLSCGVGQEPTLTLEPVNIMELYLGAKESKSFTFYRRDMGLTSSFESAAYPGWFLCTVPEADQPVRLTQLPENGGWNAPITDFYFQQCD
Description: as §1

IL-36a = molecular target: T4, IL-36a (human, UniProt Q9UHA7 1-158, limits assumed); experiment: CDI HuProt native protein microarray
T4 sequence (looked up): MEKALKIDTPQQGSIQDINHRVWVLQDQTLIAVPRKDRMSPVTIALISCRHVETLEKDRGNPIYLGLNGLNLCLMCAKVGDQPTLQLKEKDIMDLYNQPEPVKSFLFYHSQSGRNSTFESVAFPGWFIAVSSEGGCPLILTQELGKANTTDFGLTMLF
Description: as §1

IL-37 = molecular target: T5, IL-37 (human, UniProt Q9NZH6 1-218, limits assumed); experiment: CDI HuProt native protein microarray
T5 sequence (looked up): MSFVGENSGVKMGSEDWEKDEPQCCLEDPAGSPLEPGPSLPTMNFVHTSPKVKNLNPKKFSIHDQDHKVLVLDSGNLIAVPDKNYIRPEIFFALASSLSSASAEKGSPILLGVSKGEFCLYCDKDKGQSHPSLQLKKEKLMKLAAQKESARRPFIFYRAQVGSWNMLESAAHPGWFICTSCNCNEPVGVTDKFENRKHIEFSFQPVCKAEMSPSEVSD
Description: as §1

IL-36b = molecular target: T6, IL-36b (human, UniProt Q9NZH7 1-164, limits assumed); experiment: CDI HuProt native protein microarray
T6 sequence (looked up): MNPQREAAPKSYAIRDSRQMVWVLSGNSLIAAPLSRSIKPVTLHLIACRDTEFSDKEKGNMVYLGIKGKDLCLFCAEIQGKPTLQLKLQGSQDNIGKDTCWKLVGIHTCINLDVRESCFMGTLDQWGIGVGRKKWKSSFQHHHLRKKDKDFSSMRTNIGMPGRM
Description: as §1

IL-36g = molecular target: T7, IL-36g (human, UniProt Q9NZH8 1-169, limits assumed); experiment: CDI HuProt native protein microarray
T7 sequence (looked up): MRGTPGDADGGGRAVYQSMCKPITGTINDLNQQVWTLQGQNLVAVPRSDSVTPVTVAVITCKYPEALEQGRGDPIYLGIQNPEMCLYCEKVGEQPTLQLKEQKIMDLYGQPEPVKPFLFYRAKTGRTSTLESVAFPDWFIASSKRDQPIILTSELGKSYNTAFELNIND
Description: as §1

IL-33 = molecular target: T8, IL-33 (human, UniProt O95760 1-270, limits assumed); experiment: CDI HuProt native protein microarray
T8 sequence (looked up): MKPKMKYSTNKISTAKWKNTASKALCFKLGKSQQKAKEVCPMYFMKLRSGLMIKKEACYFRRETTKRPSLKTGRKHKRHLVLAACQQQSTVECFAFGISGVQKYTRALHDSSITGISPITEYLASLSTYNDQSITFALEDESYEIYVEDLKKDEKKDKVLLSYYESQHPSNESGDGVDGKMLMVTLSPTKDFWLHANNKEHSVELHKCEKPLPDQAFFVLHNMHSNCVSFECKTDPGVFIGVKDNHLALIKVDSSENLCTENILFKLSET
Description: as §1

Hnrnph1 = molecular target: T9, Hnrnph1; experiment: CDI HuProt native protein microarray (High-Spec cross-reactivity assay)
T9 construct: The lower-case gene symbol may mean a mouse clone
T9 sequence (P31943 1-449, species assumed, looked up): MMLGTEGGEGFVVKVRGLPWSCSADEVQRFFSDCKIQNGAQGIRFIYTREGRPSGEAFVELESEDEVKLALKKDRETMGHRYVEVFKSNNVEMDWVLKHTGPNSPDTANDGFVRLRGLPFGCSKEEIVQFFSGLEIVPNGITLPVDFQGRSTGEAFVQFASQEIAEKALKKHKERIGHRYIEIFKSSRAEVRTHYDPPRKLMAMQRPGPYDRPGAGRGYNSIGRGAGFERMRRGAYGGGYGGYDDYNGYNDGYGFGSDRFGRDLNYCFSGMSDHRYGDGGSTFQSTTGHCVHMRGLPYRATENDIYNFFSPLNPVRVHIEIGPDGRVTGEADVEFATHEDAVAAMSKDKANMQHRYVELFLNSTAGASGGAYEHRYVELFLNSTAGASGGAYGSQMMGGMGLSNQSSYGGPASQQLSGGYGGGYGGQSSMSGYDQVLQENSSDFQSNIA
Description: as §1

Chain of IL-1Ra (P18510 26-177 limits assumed): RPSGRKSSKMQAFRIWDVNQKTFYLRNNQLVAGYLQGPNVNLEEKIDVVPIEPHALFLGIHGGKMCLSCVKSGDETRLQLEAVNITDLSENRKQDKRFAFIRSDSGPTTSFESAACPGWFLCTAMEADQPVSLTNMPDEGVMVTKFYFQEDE

binding result (IL-1α): no binding | binding result (IL-1β): no binding | binding result (IL-1Ra): no binding | binding result (IL-18): no binding | binding result (IL-36Ra): no binding | binding result (IL-36a): no binding | binding result (IL-37): no binding | binding result (IL-36b): no binding | binding result (IL-36g): no binding | binding result (IL-33): no binding | F635 (Hnrnph1): 4130 | S-Score (Hnrnph1): 5 | Z-score (Hnrnph1): 10.6
B1: CD1-M3 (antibody, V domains shown)
VH: EVQLQQSGPELVKPGASVKIPCKASGYTFTDYNMDWVKQSHGKSLEWIGDINPNNGGTIYNQKFKGKATLTVDKSSSTAYMELRSLTSEDTAVYYCSRPYYGYFAYWGQGTLVTVSA
VL: DVVMTQSPLSLPVSLGDQASISCRSSQSLVHSHENTFLHWYLQKPGQSPKLLIYRVSNRFSGVPDRFSGSGSGTDFTLKISRVEAEDLGVYFCSQSTHVPLTFGAGTKLELK
notes: Mouse monoclonal from a hybridoma of a CD-1 mouse immunized with full length recombinant IL-38
